According to the supplement of paper PMC12042874:
± gives the uncertainty stated by the source.

Experiment: amyloid nucleation score (Sup35N fusion, yeast selection) (log enrichment); library NNK2; higher = more nucleation; inactive = no reads after selection
How it was run: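 For the nucleation score, DiMSum gave the log enrichment of output over input reads, centred on the mode score of non-aggregating sequences. Psi-negative yeast expressing Sup35N fused to peptides of 20 random codons were induced with 100 μM copper sulfate for 24 hours and grown 7 days at 30°C on medium lacking adenine and uracil. Input and output plasmid inserts were Illumina-sequenced, and sequences with under 100 input reads were excluded.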

Substance | amyloid nucleation score
KAYLH | -0.427 ± 0.78
KCMRFIL | -0.087 ± 1
KCPRVPNLVS | 0.407 ± 0.43
KCRHFCRCETCTRYDPVHIL | 1 ± 0.53
KCRISAMICDKAIFRVKRAC | 1.13 ± 0.4
KCVGYW | 0.811 ± 0.57
KCVRTTVLHNRRVPDGLTMP | 0.678 ± 0.33
KCWNRYKHSDDIYGVGFPSI | -1.09 ± 1
KDFVG | 2.62 ± 0.11
KDKGKNDRAIAWVLWGICVL | 0.51 ± 0.51
KDKGVCSQLYRDLVWRDEVF | -0.035 ± 0.31
KDTRVVYVPSFYLWNLDAVK | -0.551 ± 0.61
KDVTVNIRWTLIQLLYHTNF | 4.08 ± 0.11
KDYPLAGSLVTKL | 0.317 ± 0.62
KECRYID | inactive
KEHGMESRPSWLTFSIYLVG | 0.428 ± 0.56
KFHGSVNGMFPAREITRDLR | 0.316 ± 0.23
KFKFKESGFEVVSLGGMVTP | inactive
KFLHKQVFNFHVSGMNPMAS | 5.75 ± 0.069
KFRCASWLCRSTKAWRRCGA | 4.75 ± 0.049
KFRCHGR | 0.785 ± 0.62
KFRMDGGFILNVVHKQHNMV | 0.023 ± 0.8
KFWDLC | 0.047 ± 0.45
KGFEIFSSFTLYV | -0.684 ± 0.55
KGFNKY | -0.911 ± 0.43

Substance | amyloid nucleation score
KGKDS | -0.037 ± 0.39
KGNAVVSWDRS | 2.36 ± 0.1
KGRGCRFLMLYYRVYMFRGS | 0.471 ± 0.5
KGRYSGEGEIAFLQRVVGSG | 0.434 ± 0.41
KGSEPLYGLCIIMV | 0.851 ± 0.8
KHIFFLREVVNYFMRRTKGL | -0.507 ± 0.64
KHRWII | -0.287 ± 0.3
KHSRMYLR | 1.49 ± 0.17
KIDSICRYRGPINQLNINPF | 0.417 ± 0.4
KIFFKNDGAGSVWPSNKLYF | -1.29 ± 1
KIISNSFCSPCINSILPSKM | 6.826 ± 0.053
KILDWRGWSRGSGPLTSSTW | 1.04 ± 0.38
KIRTNALYLL | -0.298 ± 0.29
KITRWLCYIFTTLL | -1.7 ± 1.1
KIVGCGHSRMLIMTWC | 0.733 ± 0.56
KKERPNMSWGDHY | -0.78 ± 1
KKEVHLSRVYITETYVVGEG | -0.052 ± 0.63
KKVRNC | 0.436 ± 0.8
KLCKF | 3.27 ± 0.073
KLGRCRRKFMLYGCNLVQSR | -0.133 ± 0.33
KLGTLLSFPTVINVANMIQI | 3.8 ± 0.081
KLMYLKLK | -0.038 ± 1.1
KLPAVNLVVMREWKALRFGV | -0.48 ± 0.33
KLPLFTSMCCTGHFPPITPP | 0.409 ± 0.8
KLQSCCIF | 6.23 ± 0.084

Substance | amyloid nucleation score
KLRVFPLKESVSQGALQTVG | -0.476 ± 0.44
KLVGMPFSSVACNSFKHRSE | 0.408 ± 0.16
KLVTYVPSNKTNCHDDDGTY | -0.678 ± 0.56
KLYFCYLEI | -1.25 ± 1.1
KMAIGLCVSTLQ | 0.333 ± 0.42
KMDTRSRLKQWKRFFIHIPK | -0.92 ± 0.49
KMLCYMYVVTHNVTLRHRLY | 0.196 ± 0.42
KMLSWP | -0.412 ± 1.1
KNDLRSSGWTAGSGISLEEG | -0.365 ± 0.76
KNSGSMIRWIFIRGSTTIEK | inactive
KPIVITLLLSDCVRM | 9.498 ± 0.026
KRAMPLSLTSRRLWISSGTG | -0.708 ± 1.1
KRHMVSS | 1.72 ± 0.42
KRKFRMWSQNIFLKVGNILA | -1.47 ± 0.55
KRKKQKFAMLYVSGNLLRRD | 0.234 ± 0.28
KRNLVCAISFLDSRSCRRTA | 0.119 ± 0.24
KRNRQMSFRMVSLTRNTSPH | 0.792 ± 0.53
KRSCDQVCLLSRLIGQAGEW | 2.26 ± 0.1
KRVFKLSESTTRVIMWGRYS | inactive
KRYLWTGN | -0.534 ± 0.35
KSCDIL | -0.335 ± 0.79
KSCSEV | -0.047 ± 0.35
KSDQLGCRLVDRGNCFSNRL | inactive
KSEKTHRIAMLNMSLVSYMR | 3.97 ± 0.053
KSNLCLNVHGSLGICPTHDL | 0.178 ± 0.37

Substance | amyloid nucleation score
KSPFVICGKRDVRK | -1.28 ± 1.1
KSPPFMGSAERVSRRNGRGL | -0.417 ± 0.36
KSQLYNYAVSM | -1.59 ± 0.64
KSQVPPNFWVVMCLTEFSVV | 5.628 ± 0.046
KSRISMPPSVLLDYGLAHNA | -0.598 ± 0.63
KSSEHRGCLICTIIAVDL | 6.977 ± 0.039
KSTLANHFTVLIGDTADLHG | inactive
KSVGVQALMLAKGIYFSING | 1.53 ± 0.28
KSVTVGADHNVDVGVAEMIR | 1.79 ± 0.32
KTCRFLCA | 0.176 ± 0.64
KTCSACVSIKICLLNDGGNW | 9.63 ± 0.052
KTCSDMWYAVRHSNHETSV | 1.34 ± 0.52
KTLKNEFVDMNQMIYNY | -0.489 ± 0.79
KVFSNIVMLLSVRLCCLMKI | -1.58 ± 1.1
KVGERISPELSGMFYGTLWY | -0.305 ± 0.74
KVIPVALNTRIAWGTHRLMM | 0.958 ± 0.27
KVMIVNRVIYTNRFNQGLTM | 7.705 ± 0.051
KVSYMFLVTLSYGSWFPSSM | -0.545 ± 0.45
KWDHPKEVFCSVRTSGRGVE | 2.04 ± 0.072
KWFNVCIWKCAWLYIDGVGC | 3.95 ± 0.066
KWGRCSIGT | inactive
KWKLMCDAFLS | -0.969 ± 0.48
KWRDRNDINNFRQGLLCSVN | 3.03 ± 0.14
KWSYSPVGKHYLYMMWDGHS | 0.409 ± 0.3
KWYFRSWRLMLYSVKFSFRI | -0.693 ± 0.55

Substance | amyloid nucleation score
KYRYRLVQR | -0.656 ± 1.1
KYTVSLVDLGCFQSKGCDST | inactive
KYVGWQYLSSCILGVFPLAG | 0.151 ± 0.32
KYVIR | -0.606 ± 1.1
KYVWSVEGKVAVAGVAMSCA | 0.025 ± 1.1
KYYRQSCQDRPILFDVALYY | inactive
LAFDK | inactive
LAGRC | 0.968 ± 0.56
LALKGLLFSHNGKLEKGQV | -0.17 ± 0.79
LALMFLYAALFHAAR | 7.139 ± 0.058
LALNLQNCTRGGFTILTVS | inactive
LAMYLWCTELP | -0.057 ± 0.63
LARFSDMDKMKGSVGFWALK | -0.014 ± 0.62
LASSKEACVHTVMAIVSVGA | 2.08 ± 0.12
LASYLRFSISSVIFNTRAIL | -0.315 ± 0.54
LATKTLSMSLESICRNTVAF | inactive
LAWWFY | -0.325 ± 0.76
LCARALLH | 0.905 ± 0.32
LCDIIQAF | -0.626 ± 1.1
LCGMLYAAAGHWFSVMPPGD | 0.997 ± 0.32
LCIIWVVRFYALWWSEPMGW | 1.14 ± 0.18
LCILVFRGASRSLFSGGVFT | -0.199 ± 0.76
LCIPSVTTDS | inactive
LCLRDFSFDGLVGSR | 0.119 ± 0.65
LCMCLRNMLSPAMVVTSNPP | 0.737 ± 0.2

Substance | amyloid nucleation score
LCMRTFGLHHCPGYG | 1.2 ± 0.37
LCRIDRVWQLGYRWLYQDVV | 4.34 ± 0.084
LCRYFQN | 0.218 ± 0.8
LCSTHVMKLWFYVSFLLF | -0.397 ± 0.78
LCTTNSLF | -0.671 ± 0.38
LCWSYCRVKCGHMFVGVRGS | 0.58 ± 0.56
LDATNSKNVYRMPAWKGNMR | 0.564 ± 0.32
LDILIYLKILDISFGNESCM | 0.002 ± 0.17
LDISSDPFFSS | -1.25 ± 1.1
LDLGAPPWH | 1.03 ± 0.36
LDNYCFHAASYSQHNSSTGP | 0.804 ± 0.46
LDPNSYHKSRWFNMMSFIRV | 0.611 ± 0.81
LDYLGETNLLVRWHLAVTAS | 0.626 ± 0.16
LEAISCKWYTLYVVYSCNSW | -0.877 ± 1
LECNDA | 0.322 ± 0.51
LELVCRPISMSGWSGYHTCR | 0.983 ± 0.41
LEVLVLDVYSYVSLHVGTFV | 0.051 ± 0.35
LEVYVLFTVTYAVMRMNMDG | 0.302 ± 0.56
LEYFITTSGSSSKVLHGFTM | -0.986 ± 1.1
LFAYYGWVFYMSIRCVHMGM | -0.583 ± 1.1
LFDGARINTVNECVYWNS | inactive
LFDGRNYF | -0.669 ± 0.46
LFDSLPDYITTYYNNDAQQG | -1.85 ± 1
LFDVADIDA | 0.736 ± 0.74
LFESMPGCDDSNELIFWGIA | -0.722 ± 0.28

Substance | amyloid nucleation score
LFGGRGKRVRLKVLLTQRF | -0.37 ± 0.32
LFGHRFPSYL | -0.152 ± 1
LFGNWSFVVNRCVVSLKLM | inactive
LFIDLEMLFSPRN | 5.471 ± 0.048
LFIICNSVVHMDLASVGNVS | 8.409 ± 0.043
LFIYYWYLLFYGSPYIWLPV | -0.363 ± 1.1
LFLCYFIRT | 2.17 ± 0.1
LFMKRER | -0.179 ± 0.76
LFMLYCFHLQDMKRVQICVH | 0.188 ± 0.19
LFNAVGLATV | 0.33 ± 0.74
LFSALFGRW | 4.26 ± 0.05
LFSTYRNFIFVIHSADMCKS | -0.558 ± 1
LFTVLKTVWANNNTYDSKQK | -1.23 ± 0.78
LFTVWVASVVWSCADVA | -1.34 ± 0.78
LFVLVREVNVLTFLCPSEDQ | 8.52 ± 0.066
LGDRCNS | 2.36 ± 0.11
LGFHWIRNGGGLVTVNLVCV | 0.747 ± 0.27
LGFMNCSLMHAGRVGPREHF | 2.72 ± 0.13
LGHTH | 1.06 ± 0.53
LGIVVVHWTPIIAGW | -1.11 ± 0.56
LGNWCGYWYFHHISSYGLMR | -0.419 ± 0.5
LGPTVYDFLHMCFYFRA | 4.74 ± 0.065
LGSRGSRSIAESFAGKIRI | -0.226 ± 1.1
LGVNYAMNVTSGSQTFMRDG | -0.243 ± 1
LGYSLAACNQETGNDRYMAR | 0.121 ± 0.34
